In the nanobody polyreactivity screen of Harvey et al. (2022):

Assay: yeast display, Sf9 membrane polyspecificity reagent, FACS + sequencing; frameworks hold sequencing errors
In short: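 Using colony PCR, genes from sorted yeast display clones were amplified, then sequenced on MiSeq at 2 × 250 and filtered by CDR length. The clones had been stained with 10% biotinylated, detergent-solubilized Sf9 membrane reagent for 1 hour at 4 °C and sorted by FACS into low and high (top ~1%) gates on anti-HA and streptavidin fluorescence. Polyreactivity labels come from the gate of origin.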

QVQIVESGGGLVQAGGSLRLSCAASGRTFFPYAMGWYRQAPGKEREFVAAITKTDDSTYYADSVKGRFTISRDNAKNTVYLQMNSLKPEDTAVYYCAADRSISADYVVSVDYDYWGQGTQVTVSS
polyreactivity (PSR sort gate): low polyreactivity

QVQLVETGGGLVQAGGSLRLSCAASGRTYSTYAMGWYRQAPGKERDLVADISWRGAPTYYADSVKGRFTISRDNAKNTVYLQIISQKPEYTAVYYFAAAPYGYLRYEYWGLGTQVTVSS
polyreactivity (PSR sort gate): high polyreactivity

QVQLVESGGGLVQAGGSLRLSCAASGYTFYSNAMGWYRQAPGKERELVAVISRGGGTYYADSVKGRFTISRDNAKNTVYLQMNSLKPEDTAVYYCAASTFTYHWRYDYWGQGTEVTVSS
polyreactivity (PSR sort gate): low polyreactivity

QVQLVESGGGLVQAGGSLRLSCAASGITFSFYAMGWYRQAPGKERELVAGLTRSGGDTYYADSVKGRFTISRDNAKNTVYLQMNSLKPEDTAVYYCAAAWFFYRRQYTFFAGRMDYWGQGTQVTVSS
polyreactivity (PSR sort gate): high polyreactivity

QVHLVESGGGLVQAGGSLRLSCAASGRIFKTYAMRWYRQAPGKERELVAAITASGGRTYDADSVKGRFTISRDNAKNTVYLQMNSLTPEDSAVYYCAAPLLRDLRSPYYYNYWGQGTQVTVSS
polyreactivity (PSR sort gate): low polyreactivity

QVQLVESGGGLVQAGGSLRLSCASSGSTFPVYAMGWYRQPPGKDRELVAAITSGGSTYYADSVKGRFTISRDNEKNTVSLQMNIRKPEDTAVYYCNADGYLSYAFDYWGQGTQVTVSS
polyreactivity (PSR sort gate): low polyreactivity

QVQLVESGRGLVQAGGTLRLSCAASGRIFYWNAMGWYRQAHGKERELVAAISWSGGSTYYADSVKGRFTISRDNAKNTVYLQMNSLKPEDTAVYYCAADGGRRTYYVKYDYWGQGTQVTVSS
polyreactivity (PSR sort gate): low polyreactivity

QVQLVESGGGLVQAGGSLRLSCAASGRIFHWYAMGWYRQAPGKERELVAAIRWTGGSTYYADSVKGRFTISRDNAKNTVYLQMNSLKPEDTAVYYCAAKGYTGIFYEMDYWGQGTQVTVSS
polyreactivity (PSR sort gate): low polyreactivity

QVQLVESGGGLVQAGGSLRLSCAPSGFIITYFGMGWYRQAPGKERELVAAISSRGGSTYYADSVKGRFTISRDTAKNTVYLQMNSLKPEDTAVYYFNTDSYRWTFSNRRYDYWGQGTQVTVSS
polyreactivity (PSR sort gate): high polyreactivity

QVQLVESGGRLVQAGGSLRLSCAASGRISPYAMGWYRQAPGKERELVAAISSRGGRTYYADSVKGRWTISRDNAKNTVYLEMNSQKPEDTAVYYCAVYPRSTLRTFQRDYWGQGTQVTVSS
polyreactivity (PSR sort gate): high polyreactivity

QVQLVESGGGLVQAGGSLRLSCAASGRTFRTYTMGWYRQAPGKERELVAAISIGGRTNYADSVKGRFTISRDNAKNTVFLQMNSLKPEDTAVYYCIAARWVPRSYGYWGLGTQVTVSS
polyreactivity (PSR sort gate): high polyreactivity

QVQLVESGGGLVQAGGSLRLSCAASGSTFSDNAMGWYRQAPGKERELVAAISVTGGRTYYADSVKGRFTISRDNAKNTVYLQMNSLKPEDTAVYYCAKVTILDPYSYDYWGQGTQVTVSS
polyreactivity (PSR sort gate): low polyreactivity

QVQLVESGGGLVQAGGSLRLSCAASGGISSSNAMGWYRPAPGKERELVAGINSRGGSTYADSVKGRFTISRDNAKHTVYLQMNSLKPEDTAVYYCAAAPTFKWRRNNYDYWGQGTQVTVSS
polyreactivity (PSR sort gate): high polyreactivity

QVQLVDSGGGLVQAEGSLRLSCAPSGIIFGGYAMGWYIPAPGKERELVAAISRSGGSTYYADSVKGRFTISRDNAKNTVYLQMNSLKPEDTAVYYCAADGGAYEYDYWGQGTQVTVSS
polyreactivity (PSR sort gate): high polyreactivity

QVQLVESAGGLVQAGGSLSLSCAASGRTFVIYAMGSDRQAPGKERELVAGIDSGTSTYADSVKGRFTISRDNAKNTVYLQMNSLKPEDTAVYYCAADFAPDGAGWYIPGDYDSWGQGTQVTVSS
polyreactivity (PSR sort gate): low polyreactivity

QVCLQESGGGLVQACGSLRLSCAASGTISRDIFMGWYRQAPGKEREFVATIAQGGITNYADSVKGRFTISRDNAKNTVYLQMNSVKPGDTAVYYCAARDGNCYWFYYWGQGTQVTVSS
polyreactivity (PSR sort gate): high polyreactivity

QVQLVESGGGLVQAGGSLRISCAASGSTYRKYTMGWYRQAPGNERDLVATISWSGGSTNYADSVKGRFTISRDNAKTIVYLQMISLKPDDTAVYYCNAYVSPRYRGSRYYYWGQGTQVTVSS
polyreactivity (PSR sort gate): high polyreactivity

HVQLVESGRGLVQAGGSLRLSCAASGSTFPFYDRGWYRQAPGKERQLVDAITASVGNTYYADSVKGRFTISRDNAKNTVYLQMNSLKPEDTAVYYCNADELYTYIPDFDYWGQGSQVTVSS
polyreactivity (PSR sort gate): low polyreactivity

QVQLVESGGGLVQAGGSLRLSCAASGSTIYLYAMGWSRPAPGKERVLVAAIRGRGGRTYYADSVKGRFTISSDNAKNTVYLKMNSLKPEDTAVYYCNADVYAYYRATTRFDYWGQGTQVTVSS
polyreactivity (PSR sort gate): high polyreactivity

QVHLVESGGGLVQAGGSLRLSSAASGSIFQVYAMGWYRQAPGTERELVAGISRGGSTYYADSVKGRFTISRDNAKNTVYLQMNSLKPEDTAVYYCAARGGGIRAYGSNRRSFYYWGQGTQVTVSS
polyreactivity (PSR sort gate): high polyreactivity

QVQLVESGGGLVQAGGSLRLSCAASGRIFWTNAMGWYRQAPGKERELVAAISYRGGRTYYADSVKGRFTISRDNAKNTVYLQMNSLKPEDTAVYYCAAFTAQGPKYDYWGQGTQVTVSS
polyreactivity (PSR sort gate): high polyreactivity

QDQLVESGGGLVQAGGCLRLSCAASGSIFIPYAMGSYRQAPGKERELVAAISLGDGNTYYADSVKGRFTISRDNAKYTVYLQMNSLKPEDTAVYYCNAVPRKFGDEYWGQGTQVTVSS
polyreactivity (PSR sort gate): low polyreactivity

QVQLVESGGGLVQAGGSLRLSCAASGFISSINAMGWYRQAPGKERELVAGIRARGTSTYYADSVKGRFTISRDNAKNTVYLQMNSLKPEDTAVYYCAADFTYQGSSANDYWGQGTQVTVSS
polyreactivity (PSR sort gate): low polyreactivity

QVQLEDSGGVLVQAGGSLRLSCAASGFIYRFYPMGWYRKAPGKERELVAGISSSGGSTYYADSVKGRFTISRDYAKNTVYLQMNSLKPEDTAVFYCNAKRSDQSYKTFNYWGQGTQVTVSS
polyreactivity (PSR sort gate): low polyreactivity

QVQLVESGGGLVQAGGSLRLSCAASGFIFKYYTMGWYRPAPGNERELVAAISKNAGSTYYADSVKGRFTISRDNAKNTVYLQMNSLKPEDTAVYYCARTYSTWYYYWGQGTQVTVSS
polyreactivity (PSR sort gate): high polyreactivity

QVQLVESGGGLVQAGGSLRLSCAASGSTFYYNVMGSYRQAPGKERELVAAITLSGGSTYADSVKGRFTISRDNAKKTVYLQINSLKPEDTAVYYCAKKGRYGRWGYKFDYWGQGTQVTVSS
polyreactivity (PSR sort gate): low polyreactivity

QVQLVESGGGLVQAGGSLRLSCAASGSTFGGYAMGWYRQAPGKERELVAAISSGGSTYYADSVKGRFTISRDNAKNTVYLQMNSLKPEDTAVYYCAADTYAHWGYYGSYYRDDYWGQGTQVTVSS
polyreactivity (PSR sort gate): low polyreactivity

QVQLVDSGGGLVQAGGSLRLSCAASGRTYDTNAMGWNRQAPRKETELVAVITARGGNTSYADSVKGRFTISRDNAKNTVYLQMNSLKPEDTAVYYCAALYFKVGYYTYEYWGQGTQVTVSS
polyreactivity (PSR sort gate): low polyreactivity

QVQLVESGGGLVQAGGSLRLSCAASGSTFVSYAMGWYRQAPGKERELVAAITWRGDSTYYADSVKGRFTLSRDNAKNTVYLQMNSLKPEDTAVYYCAADGRSWRYYSPYYYWGQGTQVTVSS
polyreactivity (PSR sort gate): low polyreactivity

QVQLGESGGGLVQAGGSLRLSCAASGRTFVSNAMGWYRPAPGNERELVAAITQSGGSTYADSVKGRFTISRDNAKNTVYLQMNSLKPEDTAVYYCNADHAFVGTYYERHDYWGQGTQVTVSS
polyreactivity (PSR sort gate): low polyreactivity

QVQLVESGGGLVQAGGSLRLSCAASGFTYRTNAMGWYRQAPGKERELVAAISTGARTYYADSVKGRFTISRDNAKNTVYLQMNSLKPEDTAVYYCNKVLRRFLSRYDYWGQGTQVTVSS
polyreactivity (PSR sort gate): high polyreactivity
